Data published in the domain aggregation screens of Martell et al. (2025).

Assay: soluble fraction after stress (log2 fold change); higher = more stays soluble; pooled small domains, quantitative proteomics
Conditions: stress: 75 degC
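Note: 20 min heating vs room temperature control held 20 min.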

Row | Sequence | soluble fraction (log2)
1 | HMGDWITGTVTRIADNGWGTFQPENAHNTVSIPPKMVADNQLKEADSIKIIAEPSPDGTKTFIKAISRE | 0.113
2 | HMGEDSEPVQVPDVTGQPLWEARRTLSSMGLKVLDDGGSGSVTAQMPSAGATLRNGGQMMLYTYDEALPE | 0.126
3 | HMGEEIRTWTDAQGRKIEARMSMLDGDQVLLELKDGRKIPYPLAKLSADDAHYARHFASASASD | -0.0336
4 | HMGEFVQLKNRTGSVIEAKILNYQNGKVKLQRKDGVIFVVPISIFDRMSSSIIENKAKEMDSF | -0.263
5 | HMGEIHAQIPGLVSHLFVKEGNTVQVEQKLFILEAMKMENEIDSPIQGTVKRIHIATGSKVEKGDLIMEIS | -1.47
6 | HMGEKFTFGQIAKAKAYAKTYANDMTSAVKNIEAIATGLSKHPEVADTLKKANENQELNRITKLAG | -0.0289
7 | HMGEKPTEITLSNAISVQELAEKLYVSETDIIRTLFLDGIIVNINQVLDLETAVKVGDQLGVTITIVE | -1.33
8 | HMGEKTVPNVIGQKLATAKQLLEKEGLTVGSTSYNKNQADKDTVLSTDPAPGSHLSEGAKVNLTLSSGA | 0.0786
9 | HMGEKVIAVSGGFDPIHVGHLRMMQDAAQHGRLVVIVNSDEWLLKKKGYVFMPWEERAELIGAYDFVDE | -0.964
10 | HMGELDPKIIAQINTFLQGITKLIEHPGNKDAKKTALGALHKLTFDQNITANFGKQLGQLDQVIQSSEET | 0.0337
11 | HMGELGPGSRGQAVRALQERLMALGFPLARFGADGIFGRETTGALRAFQHVAGLSPTGLGDHETLKWLGII | -1.33
12 | HMGELTNALATLSERERDVARLVAQGLDNRQIAAQLFLSEGTVRNRISDILDKLALTNRTQLAIAWLHAE | -1.4
13 | HMGEPTLTIRVVSYNPQSGEMVVVARDPLSGRYALATLNVRTGAGQMIGPQGELLPIENFALGS | -1.65
14 | HMGEQVAVPDVTKKSVREVNNILTSAGLRLQIEGSGISVRQDPPADTMVAPDTVVTVSFEPP | 0.118
15 | HMGEQVFSRKDLAINGNDLKAVFGWPPGPKYREALDQLFHWVLEDPARNRRETLLAYLHSLYD | -0.136
16 | HMGESEKTLELVSQKDALVDEAFFFVRFQALLESNKTKGAQDLLDQSNHLSAAKLLQANAYLDIV | 0.44
17 | HMGESFEELAREISDDTGSKTEGGETGLFPRGVMAPQFEEAAFLLKVGDISEPIRTKFGYHIIKLKEIKP | -0.0117
18 | HMGESVVVPDLRGKTLEEARAILKKVDLDYEINDSTYSKTAVPGTIRDIVPAPGSHVKAGRILFVSING | -0.553
19 | HMGETISVPAVRSLAYDRAVDMLTAEGLKGIVADSVYDNRTQPGTVIEQNPKAGTIVKEGREVYLTINA | 0.275
20 | HMGFAPEAAREEVAQLIGQRGRAVTVLRPSGQVEIAGRRFEATVEVGAVDAGDTIVVRGQTAFALLVEKAD | -0.292
21 | HMGFKLQRYTTFVVERLKKYQDTPAAQMHDLLKEHYPDFPAVSPKTVYNYVMKIRQEHGLPAV | -4.26
22 | HMGFSERLAQAMSHAGYTQGGLAKAVGMAQSSVNKLLNNANSSRKTVEIASVLGVRPEWLSTGEGDML | -0.092
23 | HMGFSKGKRDLIRMIKLAIRELADDNGRAQIEDVITRLVQEGHSRDEIRLQIDMFLRQGEAMEPKQGIIKL | -1.08
24 | HMGFSLEQFGTDPDLKKIVENAFERIITASEGRIFKSDFSSNNSALPLEIFSFLIAVILLKLSGMN | -0.157
25 | HMGFVATRSRKFLPFSEARAITRGLGFSNQKDYKEWIKGNGNELLLPFNPWRTYGDSGWKGWKDFLGTDKA | -1.39
26 | HMGFYDLFINLADKVGSLADVTQILAEARINLVNVHILEIREEIDGIAQLTFSSEKDRQKALELLKTKYK | -1.87

Row | Sequence | soluble fraction (log2)
27 | HMGGDFVEHLKDLASEAPVIRLVNTIIGRVIDLRASDIHLEPFDDGLHVRYRVDGVIHPGELVPPRLS | 0.0444
28 | HMGGEGQIEIREREGIPAEAWVDGVMRGQTPLRVEHVSIGTRRVELRAEGRPPVAADVLVRPTVTALVELS | 0.263
29 | HMGGEHPIPEDWAVNEANYEHGAKFYGYTRAHVDAEAQAFRDQYAANGKKYVDWDAHFRTFMRWQNERRYG | -0.0635
30 | HMGGEPVSARVPDTLHGARLDATAAALFPDFSRSRLAEWIKAGRLRRNDQPAKPRDKVAVDDHLLLIPEY | 0.0937
31 | HMGGFSVTAEAFDGTPEVGKTVGFTAGSTKIKVEDTKGDATFGTILEKETVGFGEGKYTYFYIGL | -0.428
32 | HMGGKAITGGEGEIIIRADKAETVAIYGIDGRLVHRVSTEAGDTKRVSVPAGIYIVKGAKVVV | 0.179
33 | HMGGKTAVVTGSLVNVRKGPGTGNALVGQVARGDELPVLGQDGDWYQIKLANGSNGWVAGWLVSLKDAVP | 0.334
34 | HMGGLIDQSIQEIIDKYSVPGKKIQKAQRLKIVAEMHTKGIFKMRGGVQQAAQALGVTRYTVYNDLEVMN | -3.08
35 | HMGGLLSVIQKKAINNVKDRYSENAIKSMTKVQLHDLIKAETSRLLDPANAKETPEYQAFLEE | -0.0634
36 | HMGGLSAEQKNGIQSVLKNFDPKNLTSADAKSITSEFKKLGVQPGKDLETTMAASGFDAKEVGRLAF | 0.106
37 | HMGGPRDVPYSTFLIEVEKGQVAEVTIQDHKITGTYKNSNEPFITNAPDDPDLVSRLIKYGVGVQAKPPE | 0.0896
38 | HMGGREEAGTDIARLLGYINDIHGEELIAKLEYYQKMLGSENFAVLMSRLPDGQKKELREQNLYSEYV | -0.152
39 | HMGGRRHANMSREEEAAFLAPFFEKAAQGGILVVREIRQALDAHLGRTVPLSTVYNLLHRHNWRKL | -3.39
40 | HMGGRTITVGISENMTVKDIAQMLEEKGLIEDARLFVVQELLSAYHKEIKPGIYDLSTDMTAAQMLEIMS | -0.443
41 | HMGGSIDITTAPPGAKIYLDADYYGKTPKRLENISAGTYRLHLLHPEKGEVYRSVTLNEKNGTLKIDENLN | 0.0541
42 | HMGGTATDYYNQGRTAYDVGDYNGALMNFQEAVRLDPRYGEAYYGLGKAYEALNMQNQALDAYLSAI | -0.529
43 | HMGGVSTDKPLNWDADGTSKLTQEQIDYLRSTYDLSDMSKQDYYDLMADLTNMNAISIKDVISQYVK | -0.0294
44 | HMGGYVVVGDKDGFWSVVSTPVSKAKAEELLKDTTFPKGEKGKIVSVAEAMSHKKVIGKEYLESGGT | 0.0752
45 | HMGHASPGNREALQFALERHQARAAEFAEKAGLSIANASTKFKQLWEQGFLMRNESVADSGGVEFLYQR | -0.113
46 | HMGHEISLNNSRFLKLLNKTKISISNDDTRHYLNGIFLHLTEAHGRQFLTGVATDSHRLSSSSLEID | -0.206
47 | HMGHRQRRARARNRSMLEDIPGLGPKRRQQLLRQFGGLPQLMRAGVAELSQVPGISDSLARKIHAELHPES | -2.73
48 | HMGHYGQMTRDLIEKAKTYEEGEEKAALVLTIANLMKRHYLTWNRATVENTLIAEQLKEMSEGALTLPEDV | -0.956
49 | HMGIAEGSSVFVRVLAAEDGGRYTVSFAGRRFSVLSRQALGIGSAFRADVKVEKGQVLLVPR | -2.95
50 | HMGIAERKEKQKLEIRNAILEASRKLIVEEGFEKVTMRKIADLIEYSPTTVYLYFKDKNEILFHLHQ | -1.54
51 | HMGIDVSAFSDTALEVLRLQAAGYTTREIAQQLHITQRTVKYHASENYRKLDARNLVDAVQIAQSLHI | -1.5
52 | HMGIEIKLLMSFMTDSGRKVSLFVTDPREDVTETEIKQVMDLIIEKNIFAPNGEDIVSAKEAKIVQT | -1.35

Row | Sequence | soluble fraction (log2)
53 | HMGIERTNADTSFSVNVYGKELIITSNKPLVVNIYAIDGTLVRTEQVTIGVNTVSGLPSGIYVVGQQKVVI | -1.1
54 | HMGIIVDMSKIKQMLQLSEAGHSNRKIALELGINKETVNNYMQLIRNGRLDIRQLLKMDDPELERRFHA | -0.965
55 | HMGIKLSDRQMQIVEIVKSQQPITSEQVAERLNLTRAALRSDLSILTMAGILEARPKVGYSLTGR | -1.97
56 | HMGILPDDVKLNIKEAKKIGFPIMLKAIHGGGGRGMMIVQSEDEFADAMKITKTEAKNSFGNGDLYFEKFF | 0.408
57 | HMGITRQQALQQINQSASPKKILNASLGKRGSEFVWDIGYLSKSGKLNYVTYSFRSGEQLNAIKN | -1.03
58 | HMGIVAGGTQSIATLRAIDTTDAQLYPDKILINVEDAGLYRLDRQSTATDDGNQVIKPTVGVGRWLKMTS | -0.15
59 | HMGIVVDGTMTLEGVAERYGMSVGELARVIGVPPEYSNERLGRLRKSYEFEMDDIRIYIIQKQ | -1.54
60 | HMGKAYMVPDVKNKSVNQAQLLLADKHMNGVVVDSSYVKELPAGIVLDQTPVGGMKVKEGRTVYLTINSD | 0.156
61 | HMGKDIYLTSGWVEKFDELNEFSNSVDNYDRLNQFGMYENAIIGDTGVIKITDEMIFDLYEKIQVPVEAGP | -0.0582
62 | HMGKEDLTAAIKKMTLNDKLDIHKIVANFQTNDSEEVITAVKWLMENNYLLKIKNNYTWNTKEK | -0.901
63 | HMGKHYLLKDDNGTITIYKILEDGTQEVYEKTEISTTYLPQTDNIGIKQGIRVNGDEALNELIENF | -0.0623
64 | HMGKKGPELSENEKSIFSILSKSGSMDLTTLKEASGLSNKQWDKGIKGLGKHGLTKVIKTEDALLVEVV | 0.0471
65 | HMGKKYVPGMAVKLSAVPLYAASTSKVPSTHVTGTYYLWDDEVVRGRLRITNLKSRVGISGQVTGWIDKDR | -1.95
66 | HMGKNIQAIRYKNNMTQDQVVAKLNLMGISITKSTYAKLETNRMNIKASELVALAKLFHTDINAFFSG | -3.12
67 | HMGKNYYEILGITKSASEEQVRKAFRGLAMEWHPDRNRSADSEERFKEINEAYQVLIDPKKRQMYDQYGR | 0.394
68 | HMGKPSSEELEALGRRTLEENVDVVEEILGGRDPKGKKIKYLEGLMMRALRGQETPEAVRRTLEELIFK | -0.132
69 | HMGKRGKEMQTAVLAILRASDRPYSAYELLESLKDIYPKIAPPTVYRALAALTQRGQIRRLESLNAFI | -0.221
70 | HMGKRKDFTYTGNYFSEYKNQTFPSLSSFLKLVGKYENYGTIKRRVRFGWDIDEAILRENIN | -1.94
71 | HMGKSKAAQSSLVRSIMHQISDKNRGPMPLSEIIDRASIQSIDEAIVRSLVSRMKEQGEIYEPSLGTYEF | -0.105
72 | HMGKTIIQLATDYLIKNMQPKSLHDIESYVLTRKKIKKSSIGAILLSKPNIFGRTEDGLFGLRIWNNFQYT | -1.37
73 | HMGKTRSTDRTRRAILDAASDLMGKHGTSVSLARIAEAAGMSKGGLLHHFPSRNDLIRALGED | 0.011
74 | HMGKVNTRNRNEGKFYKNGKKKPANWEYRFEAAPVNGKRQQISDAGYPTEKAAYEAGIAAYEKYNSAGSVN | -0.0957
75 | HMGKVTILSNPVKDALVIMGLHNAETIDVRLFDNTGRLVMQGSQSRMDISSLSPGLYILQVNGKILKVIK | -3.2
76 | HMGLASEVKTEDVLNEEKYDFEPDLIGNNNEAIYQNKQTGSYVLFDRNQNKVTKVLSAGEVLNHSKYNE | -0.138
